Measured values reported in patent US20260250410A1, “ANTIBODY AND USE THEREOF” (SICHUAN HUIYU PHARMACEUTICAL CO., LTD., priority 2022, published 2026).
Numbering of substitutions follows the chain as printed. Blank lines part the entries; values can stand above or below the molecule they belong to.

Molecular target: T1, HuCDCP1-C (Homo sapiens, UniProt Q9H5V8)
T1 construct: made in house; host or cells: HEK-293T
T1 sequence (Q9H5V8 30-667): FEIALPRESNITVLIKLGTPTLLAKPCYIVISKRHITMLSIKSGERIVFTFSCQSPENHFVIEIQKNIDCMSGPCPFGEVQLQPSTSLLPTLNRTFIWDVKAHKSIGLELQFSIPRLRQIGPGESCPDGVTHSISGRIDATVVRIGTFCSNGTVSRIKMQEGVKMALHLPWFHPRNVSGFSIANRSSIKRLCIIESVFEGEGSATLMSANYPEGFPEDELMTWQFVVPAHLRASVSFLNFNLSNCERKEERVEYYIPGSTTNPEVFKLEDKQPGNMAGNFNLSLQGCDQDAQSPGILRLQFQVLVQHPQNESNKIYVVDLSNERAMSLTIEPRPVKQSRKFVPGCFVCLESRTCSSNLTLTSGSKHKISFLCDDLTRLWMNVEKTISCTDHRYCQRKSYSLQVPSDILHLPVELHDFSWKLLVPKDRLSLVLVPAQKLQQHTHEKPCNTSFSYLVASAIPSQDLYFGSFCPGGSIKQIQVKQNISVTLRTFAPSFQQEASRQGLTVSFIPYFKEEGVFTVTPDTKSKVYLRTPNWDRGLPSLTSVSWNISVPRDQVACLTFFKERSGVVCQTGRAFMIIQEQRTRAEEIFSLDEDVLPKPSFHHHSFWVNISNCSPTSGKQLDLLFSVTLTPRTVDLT
Experiment: Caterra affinity of humanized anti-CDCP1 antibodies
Type: binding
Conditions: HuCDCP1-C 2 μg/ml immobilized
Method: The humanized anti-CDCP1 antibodies obtained from Example 11 were subjected to gene cloning, constructed into pTT5 expression vector for a small amount of expression in CHO cells (Expi-CHOS: Gibco A29127), and purified with an Fc affinity column (AT Protein A Diamond Plus. No. AA402312). Antibody purity was analyzed by HPLC and determined by Nanodrop. High-throughput affinity assay was carried out for a small amount of antibodies by Caterra.

ka: 199000 M⁻¹ s⁻¹ | kd: 0.00227 s⁻¹
B2: 1CP-123: humanized anti-CDCP1 antibody produced by 8E5; VH SEQ ID NO: 350, VL SEQ ID NO: 359 (antibody, V domains shown)
VH: QVQLQQSGSELKKPGESVKLSCKASGYTLTDFSMHWVRQAPGQGLKWMGWINTETGAPTYADDFKGRFVFSLDTSVSMAYLQISSLKSEDTAVYYCSRGRDYDPHFDYWGQGTLVTVSS
VL: EIVLTQSPATLSLSPGERATLSCRASQSISDFLHWYQQKSGQSPRLLIKYASQSISGIPARFSGSGSGSDFTLTISSVEPEDFAVYYCQSAHSFPYTFGQGTKLEIK
modifications: humanized antibody 8E5 heavy chain variable region 04; humanized antibody 8E5 light chain variable region 03

ka: 167000 M⁻¹ s⁻¹ | kd: 0.00209 s⁻¹
B3: 1CP-122: humanized anti-CDCP1 antibody produced by 8E5; VH SEQ ID NO: 349, VL SEQ ID NO: 359 (antibody, V domains shown)
VH: B2 VH with Q5V, L20V, K46E, F70L, M78T
VL: B2 VL
modifications: humanized antibody 8E5 heavy chain variable region 03; humanized antibody 8E5 light chain variable region 03

ka: 191000 M⁻¹ s⁻¹ | kd: 0.002 s⁻¹
B7: 1CP-131: humanized anti-CDCP1 antibody produced by 3C11; VH SEQ ID NO: 342, VL SEQ ID NO: 352 (antibody, V domains shown)
VH: QVQLVQSGAEVKKPGASVKVSCKASGYNFISYWLHWVRQAPGQGLEWMGGIYPGNTDTTYNQKFKGRVTVTAVTSTSTVYMELSSLRSEDTAVYYCIRYDYDRGMDYWGQGTLVTVSS
VL: DIQMTQSPSSLSASVGDRVTITCRASEDIYYRLAWYQQKPGKAPKLLISGATALETGVPSRFSGSGSGKDYTLTISSLQPEDIATYYCQHYWNIPWTFGQGTKVEIK
modifications: humanized antibody 3C11 heavy chain variable region 04; humanized antibody 3C11 light chain variable region 02

ka: 108000 M⁻¹ s⁻¹ | kd: 0.000388 s⁻¹
B12: 1CP-153: humanized anti-CDCP1 antibody produced by 8C9; VH SEQ ID NO: 345, VL SEQ ID NO: 354 (antibody, V domains shown)
VH: EVQLVESGGGLVQPGRSLRLSCTTSGLTFTHYHMSWVRQAPGKGPEWVAIIRNKAYGYTTDYSASVRGRFTISRDDSKSILYLQMNSLKTEDTAVYYCVREGGYGYDGTFAYWGQGTLVTVSS
VL: DIQMTQSPSSLSASVGDRVTITCRASESVDNYGISFMNWFQQKPGQAPKLLIYAASNQGSGVPSRFSGSGSGTDFTLTISSMQPEDFATYYCQQSKEVPRTFGGGTKVEIK
modifications: humanized antibody 8C9 heavy chain variable region 03; humanized antibody 8C9 light chain variable region 01

ka: 15800 M⁻¹ s⁻¹ | kd: 0.000579 s⁻¹
B14: 1CP-155: humanized anti-CDCP1 antibody produced by 8C9; VH SEQ ID NO: 343, VL SEQ ID NO: 355 (antibody, V domains shown)
VH: B12 VH with T24A, V37F, P45L
VL: B12 VL with A47P
modifications: humanized antibody 8C9 heavy chain variable region 01; humanized antibody 8C9 light chain variable region 02

Further lines, the molecule ahead of its results:

B1: 1CP-118: humanized anti-CDCP1 antibody produced by 8E5; VH SEQ ID NO: 349, VL SEQ ID NO: 358 (antibody, V domains shown)
VH: B2 VH with Q5V, L20V, K46E, F70L, M78T
VL: B2 VL with S40P
modifications: humanized antibody 8E5 heavy chain variable region 03; humanized antibody 8E5 light chain variable region 02
ka: 168000 M⁻¹ s⁻¹ | kd: 0.00225 s⁻¹

B4: 1CP-120: humanized anti-CDCP1 antibody produced by 8E5; VH SEQ ID NO: 347, VL SEQ ID NO: 359 (antibody, V domains shown)
VH: B2 VH with Q5V, E16A, L20V, K46E, M78T, S88A
VL: B2 VL
modifications: humanized antibody 8E5 heavy chain variable region 01; humanized antibody 8E5 light chain variable region 03
ka: 139000 M⁻¹ s⁻¹ | kd: 1.7e-05 s⁻¹

B5: 1CP-119: humanized anti-CDCP1 antibody produced by 8E5; VH SEQ ID NO: 350, VL SEQ ID NO: 358 (antibody, V domains shown)
VH: B2 VH
VL: B2 VL with S40P
modifications: humanized antibody 8E5 heavy chain variable region 04; humanized antibody 8E5 light chain variable region 02
ka: 226000 M⁻¹ s⁻¹ | kd: 0.00124 s⁻¹

B6: 1CP-127: humanized anti-CDCP1 antibody produced by 3C11; VH SEQ ID NO: 342, VL SEQ ID NO: 351 (antibody, V domains shown)
VH: B7 VH
VL: B7 VL with L73F
modifications: humanized antibody 3C11 heavy chain variable region 04; humanized antibody 3C11 light chain variable region 01
ka: 205000 M⁻¹ s⁻¹ | kd: 0.00198 s⁻¹

B8: 1CP-133: humanized anti-CDCP1 antibody produced by 3C11; VH SEQ ID NO: 340, VL SEQ ID NO: 353 (antibody, V domains shown)
VH: B7 VH with V70M, V73D
VL: B7 VL with K42N
modifications: humanized antibody 3C11 heavy chain variable region 02; humanized antibody 3C11 light chain variable region 03
ka: 183000 M⁻¹ s⁻¹ | kd: 1e-05 s⁻¹

B9: 1CP-132: humanized anti-CDCP1 antibody produced by 3C11; VH SEQ ID NO: 339, VL SEQ ID NO: 353 (antibody, V domains shown)
VH: B7 VH with V70M, A72R, V73D
VL: B7 VL with K42N
modifications: humanized antibody 3C11 heavy chain variable region 01; humanized antibody 3C11 light chain variable region 03
ka: 140000 M⁻¹ s⁻¹ | kd: 1e-05 s⁻¹

B10: 1CP-135: humanized anti-CDCP1 antibody produced by 3C11; VH SEQ ID NO: 342, VL SEQ ID NO: 353 (antibody, V domains shown)
VH: B7 VH
VL: B7 VL with K42N
modifications: humanized antibody 3C11 heavy chain variable region 04; humanized antibody 3C11 light chain variable region 03
ka: 249000 M⁻¹ s⁻¹ | kd: 0.0012 s⁻¹

B11: 1CP-151: humanized anti-CDCP1 antibody produced by 8C9; VH SEQ ID NO: 343, VL SEQ ID NO: 354 (antibody, V domains shown)
VH: B12 VH with T24A, V37F, P45L
VL: B12 VL
modifications: humanized antibody 8C9 heavy chain variable region 01; humanized antibody 8C9 light chain variable region 01
ka: 158000 M⁻¹ s⁻¹ | kd: 0.00302 s⁻¹

B13: 1CP-154: humanized anti-CDCP1 antibody produced by 8C9; VH SEQ ID NO: 346, VL SEQ ID NO: 354 (antibody, V domains shown)
VH: B12 VH with A40P, G44A
VL: B12 VL
modifications: humanized antibody 8C9 heavy chain variable region 04; humanized antibody 8C9 light chain variable region 01
ka: 118000 M⁻¹ s⁻¹ | kd: 0.000346 s⁻¹
